Assay results from patent US20230235013A1 (MABSOLVE, published 2023).

T1: human FcγRIIA (R131, Sino Biological Cat. No. 10374-H08H) (human, UniProt P12318 34-218)
T1 construct: bought; also called human FcγRIIa R131 allele; FcγRII allele R131
T1 sequence (looked up): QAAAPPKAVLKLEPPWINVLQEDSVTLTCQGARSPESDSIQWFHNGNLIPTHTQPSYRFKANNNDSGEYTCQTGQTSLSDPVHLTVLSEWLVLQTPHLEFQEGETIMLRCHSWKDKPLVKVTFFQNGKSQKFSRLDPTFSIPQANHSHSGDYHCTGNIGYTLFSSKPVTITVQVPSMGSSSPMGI


Experiments:
[1] = target: T2, Human C1q (Sigma Cat. No. 20476), HRP-labelled (human, UniProt P02745 23-245; P02746 28-253; P02747 29-245); assay: ELISA, antibody coated, HRP-C1q; Expt 2, buffer alone 0.051
T2 construct: Coupled to horse-radish peroxidase with Lightning-Link kit; also called HRP-labelled C1q

[2] = target: T2, Human C1q (Sigma Cat. No. 20476), …; assay: ELISA, antibody coated, HRP-C1q; Expt 1, buffer alone 0.053
[3] = target: T3, Histidine-tagged recombinant human FcγRI (CD64) (human, UniProt P12314 16-288); assay: SPR, culture supernatant, captured His-FcγRI;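 further: biacore T200 SPR at 25 °C, anti-His capture, supernatants of HEK293 cells expressing IgG1 Fc variants injected 1 min, reference-subtracted response read 55 s after injection start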
T3 construct: bought; also called Sino Biological Cat. No. 12056-H08H

[4] = target: T3, Histidine-tagged recombinant human …; assay: SPR, captured His-receptor
[5] = target: T1, human FcγRIIA (R131, Sino Biological …); assay: SPR, captured His-receptor
[6] = target: T4, human FcγRIIIB (NA2 allotype, Sino Biological Cat. No. 11046-H08H) (human, UniProt O75015 17-200); assay: SPR, captured His-receptor
T4 construct: bought; also called human FcγRIIIb NA2 allele

Mean Absorbance [1]	Mean Absorbance [2]	Mean binding response [3] [RU]	binding result [4]	binding result [5]	binding result [6]	Binder
–	–	–	no binding (tested: 100 µg/mL)	no binding (tested: 100 µg/mL)	no binding (tested: 100 µg/mL)	anti-CD20 human IgG1 L234T/L235T/G236R (antibody, also called 1-165; 2-63; copies: 2 + 2) heavy: QVQLQQPGAELVKPGASVKMSCKASGYTFTSYNMHWVKQTPGRGLEWIGAIYPGNGDTSYNQKFKGKATLTADKSSSTAYMQLSSLTSEDSAVYYCARSTYYGGDWYFNVWGAGTTVTVSSASTKGPSVFPLAPSSKSTSGGTAALGCLVKDYFPEPVTVSWNSGALTSGVHTFPAVLQSSGLYSLSSVVTVPSSSLGTQTYICNVNHKPSNTKVDKKVEPKSCDKTHTCPPCPAPETTRGPSVFLFPPKPKDTLMISRTPEVTCVVVDVSHEDPEVKFNWYVDGVEVHNAKTKPREEQYNSTYRVVSVLTVLHQDWLNGKEYKCKVSNKALPAPIEKTISKAKGQPREPQVYTLPPSRDELTKNQVSLTCLVKGFYPSDIAVEWESNGQPENNYKTTPPVLDSDGSFFLYSKLTVDKSRWQQGNVFSCSVMHEALHNHYTQKSLSLSPGK light: QIVLSQSPAILSASPGEKVTMTCRASSSVSYIHWFQQKPGSSPKPWIYATSNLASGVPVRFSGSGSGTSYSLTISRVEAEDAATYYCQQWTSNPPTFGGGTKLEIKRTVAAPSVFIFPPSDEQLKSGTASVVCLLNNFYPREAKVQWKVDNALQSGNSQESVTEQDSKDSTYSLSSTLTLSKADYEKHKVYACEVTHQGLSSPVTKSFNRGEC
–	–	17	no binding (tested: 100 µg/mL)	no binding (tested: 100 µg/mL)	no binding (tested: 100 µg/mL)	anti-CD20 human IgG1 L234T/L235Q/G236R (antibody, also called 2-60; copies: 2 + 2) heavy: QVQLQQPGAELVKPGASVKMSCKASGYTFTSYNMHWVKQTPGRGLEWIGAIYPGNGDTSYNQKFKGKATLTADKSSSTAYMQLSSLTSEDSAVYYCARSTYYGGDWYFNVWGAGTTVTVSSASTKGPSVFPLAPSSKSTSGGTAALGCLVKDYFPEPVTVSWNSGALTSGVHTFPAVLQSSGLYSLSSVVTVPSSSLGTQTYICNVNHKPSNTKVDKKVEPKSCDKTHTCPPCPAPETQRGPSVFLFPPKPKDTLMISRTPEVTCVVVDVSHEDPEVKFNWYVDGVEVHNAKTKPREEQYNSTYRVVSVLTVLHQDWLNGKEYKCKVSNKALPAPIEKTISKAKGQPREPQVYTLPPSRDELTKNQVSLTCLVKGFYPSDIAVEWESNGQPENNYKTTPPVLDSDGSFFLYSKLTVDKSRWQQGNVFSCSVMHEALHNHYTQKSLSLSPGK light: QIVLSQSPAILSASPGEKVTMTCRASSSVSYIHWFQQKPGSSPKPWIYATSNLASGVPVRFSGSGSGTSYSLTISRVEAEDAATYYCQQWTSNPPTFGGGTKLEIKRTVAAPSVFIFPPSDEQLKSGTASVVCLLNNFYPREAKVQWKVDNALQSGNSQESVTEQDSKDSTYSLSSTLTLSKADYEKHKVYACEVTHQGLSSPVTKSFNRGEC
–	–	–	no binding (tested: 100 µg/mL)	no binding (tested: 100 µg/mL)	no binding (tested: 100 µg/mL)	anti-CD20 rabbit IgG L234Q/L235S/G236R (antibody, also called 23.77) heavy: QVQLQQPGAELVKPGASVKMSCKASGYTFTSYNMHWVKQTPGRGLEWIGAIYPGNGDTSYNQKFKGKATLTADKSSSTAYMQLSSLTSEDSAVYYCARSTYYGGDWYFNVWGAGTTVTVSSGQPKAPSVFPLAPCCGDTPSSTVTLGCLVKGYLPEPVTVTWNSGTLTNGVRTFPSVRQSSGLYSLSSVVSVTSSSQPVTCNVAHPATNTKVDKTVAPSTCSKPTCPPPEQSRGPSVFIFPPKPKDTLMISRTPEVTCVVVDVSEDDPEVQFTWYINNEQVRTARPPLREQQFNSTIRVVSTLPIAHEDWLRGKEFKCKVHNKALPAPIEKTISKARGQPLEPKVYTMGPPREELSSRSVSLTCMINGFYPSDISVEWEKNGKAEDNYKTTPAVLDSDGSYFLYSKLSVPTSEWQRGDVFTCSVMHEALHNHYTQKSISRSPGK light: QIVLSQSPAILSASPGEKVTMTCRASSSVSYIHWFQQKPGSSPKPWIYATSNLASGVPVRFSGSGSGTSYSLTISRVEAEDAATYYCQQWTSNPPTFGGGTKLEIKRDPVAPSVLLFPPSKEELTTGTATIVCVANKFYPSDITVTWKVDGTTQQSGIENSKTPQSPEDNTYSLSSTLSLTSAQYNSHSVYTCEVVQGSASPIVQSFNRGDC

The next lines start with the binder.

Binder	Mean Absorbance [1]	Mean Absorbance [2]	Mean binding response [3] [RU]	binding result [4]	binding result [5]	binding result [6]
anti-CD3 (muromonab) human IgG1 wild-type reference (antibody, also called 3-1; copies: 2 + 2) heavy: not shown light: QIVLTQSPAIMSASPGEKVTMTCSASSSVSYMNWYQQKSGTSPKRWIYDTSKLASGVPAHFRGSGSGTSYSLTISGMEAEDAATYYCQQWSSNPFTFGSGTKLEIKRTVAAPSVFIFPPSDEQLKSGTASVVCLLNNFYPREAKVQWKVDNALQSGNSQESVTEQDSKDSTYSLSSTLTLSKADYEKHKVYACEVTHQGLSSPVTKSFNRGEC	0.432 absorbance (450 nm)	0.769 absorbance (450 nm)	–	–	–	–
anti-CD3 (muromonab) human IgG1 L234S/L235T/G236R (antibody, EU numbering; also called 3-52; copies: 2 + 2) heavy: not shown light: QIVLTQSPAIMSASPGEKVTMTCSASSSVSYMNWYQQKSGTSPKRWIYDTSKLASGVPAHFRGSGSGTSYSLTISGMEAEDAATYYCQQWSSNPFTFGSGTKLEIKRTVAAPSVFIFPPSDEQLKSGTASVVCLLNNFYPREAKVQWKVDNALQSGNSQESVTEQDSKDSTYSLSSTLTLSKADYEKHKVYACEVTHQGLSSPVTKSFNRGEC	0.046 absorbance (450 nm)	0.048 absorbance (450 nm)	–	–	–	–
anti-CD3 (muromonab) human IgG1 L234G/L235S/G236R (antibody, EU numbering; also called 3-19; copies: 2 + 2) heavy: not shown light: QIVLTQSPAIMSASPGEKVTMTCSASSSVSYMNWYQQKSGTSPKRWIYDTSKLASGVPAHFRGSGSGTSYSLTISGMEAEDAATYYCQQWSSNPFTFGSGTKLEIKRTVAAPSVFIFPPSDEQLKSGTASVVCLLNNFYPREAKVQWKVDNALQSGNSQESVTEQDSKDSTYSLSSTLTLSKADYEKHKVYACEVTHQGLSSPVTKSFNRGEC	0.049 absorbance (450 nm)	0.052 absorbance (450 nm)	–	–	–	–
anti-CD3 (muromonab) human IgG1 L234A/L235A/P329G (LALAPG reference) (antibody, EU numbering; also called 3-66; copies: 2 + 2) heavy: not shown light: QIVLTQSPAIMSASPGEKVTMTCSASSSVSYMNWYQQKSGTSPKRWIYDTSKLASGVPAHFRGSGSGTSYSLTISGMEAEDAATYYCQQWSSNPFTFGSGTKLEIKRTVAAPSVFIFPPSDEQLKSGTASVVCLLNNFYPREAKVQWKVDNALQSGNSQESVTEQDSKDSTYSLSSTLTLSKADYEKHKVYACEVTHQGLSSPVTKSFNRGEC	0.044 absorbance (450 nm)	0.052 absorbance (450 nm)	–	–	–	–
anti-CD3 (muromonab) human IgG1 L234A/L235A (LALA) (antibody, EU numbering; also called 3-65; copies: 2 + 2) heavy: not shown light: QIVLTQSPAIMSASPGEKVTMTCSASSSVSYMNWYQQKSGTSPKRWIYDTSKLASGVPAHFRGSGSGTSYSLTISGMEAEDAATYYCQQWSSNPFTFGSGTKLEIKRTVAAPSVFIFPPSDEQLKSGTASVVCLLNNFYPREAKVQWKVDNALQSGNSQESVTEQDSKDSTYSLSSTLTLSKADYEKHKVYACEVTHQGLSSPVTKSFNRGEC	0.051 absorbance (450 nm)	0.053 absorbance (450 nm)	–	–	–	–
anti-CD20 human IgG1 L234G/L235S/G236R (antibody, also called 1-59; 2-19; copies: 2 + 2) heavy: QVQLQQPGAELVKPGASVKMSCKASGYTFTSYNMHWVKQTPGRGLEWIGAIYPGNGDTSYNQKFKGKATLTADKSSSTAYMQLSSLTSEDSAVYYCARSTYYGGDWYFNVWGAGTTVTVSSASTKGPSVFPLAPSSKSTSGGTAALGCLVKDYFPEPVTVSWNSGALTSGVHTFPAVLQSSGLYSLSSVVTVPSSSLGTQTYICNVNHKPSNTKVDKKVEPKSCDKTHTCPPCPAPEGSRGPSVFLFPPKPKDTLMISRTPEVTCVVVDVSHEDPEVKFNWYVDGVEVHNAKTKPREEQYNSTYRVVSVLTVLHQDWLNGKEYKCKVSNKALPAPIEKTISKAKGQPREPQVYTLPPSRDELTKNQVSLTCLVKGFYPSDIAVEWESNGQPENNYKTTPPVLDSDGSFFLYSKLTVDKSRWQQGNVFSCSVMHEALHNHYTQKSLSLSPGK light: QIVLSQSPAILSASPGEKVTMTCRASSSVSYIHWFQQKPGSSPKPWIYATSNLASGVPVRFSGSGSGTSYSLTISRVEAEDAATYYCQQWTSNPPTFGGGTKLEIKRTVAAPSVFIFPPSDEQLKSGTASVVCLLNNFYPREAKVQWKVDNALQSGNSQESVTEQDSKDSTYSLSSTLTLSKADYEKHKVYACEVTHQGLSSPVTKSFNRGEC	–	–	21.8	no binding (tested: 100 µg/mL)	no binding (tested: 100 µg/mL)	no binding (tested: 100 µg/mL)
anti-CD20 human IgG1 L234S/L235T/G236R (antibody, also called 1-150; 2-52; copies: 2 + 2) heavy: QVQLQQPGAELVKPGASVKMSCKASGYTFTSYNMHWVKQTPGRGLEWIGAIYPGNGDTSYNQKFKGKATLTADKSSSTAYMQLSSLTSEDSAVYYCARSTYYGGDWYFNVWGAGTTVTVSSASTKGPSVFPLAPSSKSTSGGTAALGCLVKDYFPEPVTVSWNSGALTSGVHTFPAVLQSSGLYSLSSVVTVPSSSLGTQTYICNVNHKPSNTKVDKKVEPKSCDKTHTCPPCPAPESTRGPSVFLFPPKPKDTLMISRTPEVTCVVVDVSHEDPEVKFNWYVDGVEVHNAKTKPREEQYNSTYRVVSVLTVLHQDWLNGKEYKCKVSNKALPAPIEKTISKAKGQPREPQVYTLPPSRDELTKNQVSLTCLVKGFYPSDIAVEWESNGQPENNYKTTPPVLDSDGSFFLYSKLTVDKSRWQQGNVFSCSVMHEALHNHYTQKSLSLSPGK light: QIVLSQSPAILSASPGEKVTMTCRASSSVSYIHWFQQKPGSSPKPWIYATSNLASGVPVRFSGSGSGTSYSLTISRVEAEDAATYYCQQWTSNPPTFGGGTKLEIKRTVAAPSVFIFPPSDEQLKSGTASVVCLLNNFYPREAKVQWKVDNALQSGNSQESVTEQDSKDSTYSLSSTLTLSKADYEKHKVYACEVTHQGLSSPVTKSFNRGEC	–	–	16.2	no binding (tested: 100 µg/mL)	no binding (tested: 100 µg/mL)	no binding (tested: 100 µg/mL)
